In patent publication US6849458 (dated 2005):

How the values were obtained:
[1] = target: human α-thrombin (human), P00734; assay: microplate thermal shift assay, 1,8-ANS fluorescence, 50 µM ligand, single ligand
[2] = target: human α-thrombin (human), P00734; assay: microplate thermal shift assay; Kd at Tm of Hirugen for thrombin with 50 µM 3dp-4660 present
[3] = target: human α-thrombin (human), P00734; assay: microplate thermal shift assay; Kd at 298 K of Hirugen for thrombin with 50 µM 3dp-4660 present
[4] = target: human α-thrombin (human), P00734; assay: microplate thermal shift assay; Kd at Tm of Hirugen for thrombin with 200 µM heparin 5000 present
[5] = target: human α-thrombin (human), P00734; assay: microplate thermal shift assay; Kd at 298 K of Hirugen for thrombin with 200 µM heparin 5000 present
[6] = target: human α-thrombin (human), P00734; assay: microplate thermal shift assay; 50 µM Hirugen added to thrombin with 50 µM 3dp-4660 present, shift against TH/3dp-4660
[7] = target: human α-thrombin (human), P00734; assay: microplate thermal shift assay; 50 µM Hirugen added to thrombin with 200 µM heparin 5000 present, shift against TH/heparin 5000
[8] = target: T1, acidic fibroblast growth factor (aFGF) (UniProt P05230 16-155, limits assumed); assay: microplate thermal shift assay, turbidity signal, 50 µM ligand
T1 sequence (P05230 16-155 limits assumed): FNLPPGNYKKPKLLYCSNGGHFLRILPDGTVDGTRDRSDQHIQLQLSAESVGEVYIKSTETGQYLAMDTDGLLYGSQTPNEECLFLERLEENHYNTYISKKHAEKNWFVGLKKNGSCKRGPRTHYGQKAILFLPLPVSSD

[9] = target: T1, acidic fibroblast growth factor (aFGF); assay: microplate thermal shift assay, turbidity signal; Kd at 298 K estimated with equation (3)
[10] = target: T1, acidic fibroblast growth factor (aFGF); assay: microplate thermal shift assay, turbidity signal; Kd at Tm (322.15 K) calculated with equation (1)

Binder: DGDFEEIPEEYL (modifications not checked) [Hirugen (hirudin 53-64), P01050 53-64]
- ΔTm [1]: 5.8 ° K
- Kd [2]: 731 nM
- Kd [3]: 54 nM
- Kd [4]: 4250 nM
- Kd [5]: 478 nM
- ΔTm [6]: 4.6 ° K
- ΔTm [7]: 2.6 ° K

Binder: EEEEEEEE
- ΔTm [8]: 5 ° K
- Kd [9]: 3040 nM
- Kd [10]: 10100 nM

Binder: EEEEE
- ΔTm [8]: 0 ° K
